The source of these data is patent US20240036044A1 (GEMINA LABORATORIES, published 2024).

Assay [1] deals with T1, recombinant SARS-CoV-2 Nucleocapsid protein antigen (Z03488, Genscript) (SARS-CoV-2, UniProt P0DTC9 1-419).
T1 construct: also called SARS-CoV-2 Nucleocapsid antigen; NC
The assay is described as follows: dot blot dipstick, gold nanoparticles with EMT-003 alone.

Assay [2] deals with Monoclonal antibody against the SARS-CoV-2 Nucleocapsid protein (A02039, Genscript).
Assay [3] concerns the target Monoclonal antibody against the SARS-CoV-2 Spike protein (A02038, Genscript).
In assay [4] the target is T2, recombinant SARS-CoV-2 Spike protein antigen (Z03501, Genscript) (SARS-CoV-2, UniProt P0DTC2 16-685).
T2 construct: also called SARS-CoV-2 Spike antigen; S antigen
The assay is described as follows: dot blot dipstick assay, gold nanoparticle conjugate without antibody.

The term Kd denotes the equilibrium constant for the complex coming apart. The low end stands for a tighter complex, the high end for a looser complex. As usually defined, the koff is the rate constant with which the complex falls apart. A lower koff goes with slow dissociation. By kon is commonly meant the second-order rate constant of association. A lower kon goes with slow association.

B1: gold-binding fusion protein EMT003 (protein G' - linker - gold-binding peptide EMT015) (other)
chain: MTYKLILNGKTLKGETTTEAVDAATAEKVFKQYANDNGVDGEWTYDDATKTFTVTEKPEVIDASELTPAVTTYKLVINGKTLKGETTTEAVDAATAEKVFKQYANDNGVDGEWTYDDATKTFTVTEKPEVIDASELTPAVTTYKLVINGKTLKGETTTKAVDAETAEKAFKQYANDNGVDGVWTYDDATKTFTVTEGGGGSGGGGSGGGGSASGGGMHGKTQATSGTIQSMHGKTQATSGTIQSMHGKTQATSGTIQSMHGKTQATSGTIQSMHGKTQATSGTIQSMHGKTQATSGTIQSMHGKTQATSGTIQS
notes: also called EMT-03; Gold fusion protein
For the molecule B1, the binding result in assay [1] is “no binding”. Besides, in assay [2], binding was characterised by a dissociation constant (Kd) of 258 pM, the koff came to 0.000149 s⁻¹ and the kon turned out to be 577000 M⁻¹ s⁻¹. In assay [3], this molecule displayed a Kd of 192 pM, a koff of 0.000103 s⁻¹ and a kon of 537000 M⁻¹ s⁻¹. The binding result in assay [4] is recorded as “no binding (tested: 0.5 µg antigen spotted)”.
